Molecular target: T1, RUVBL2-His (human, UniProt Q9Y230 1-463)
T1 construct: RUVBL2, AAA+ ATPase; cDNA amplified from a Mammalian Gene Collection clone, cloned into pET-23a+; also called polyhistidine-tagged RUVBL2; source: E. coli One Shot BL21 Star DE3, purified (Ni-NTA agarose)
Test: pull-down; 500 ng GST-tagged protein with 100 ng His-tagged protein and glutathione beads in 1 ml binding buffer (50 mM NaCl, 50 mM HEPES-KOH pH 7.6, 0.1% NP-40), 2 h at 4 °C; in presence of ATP, ADP or γ-S-ATP; immunoblot
Details: both partners purified

T1 sequence (Q9Y230 whole entry): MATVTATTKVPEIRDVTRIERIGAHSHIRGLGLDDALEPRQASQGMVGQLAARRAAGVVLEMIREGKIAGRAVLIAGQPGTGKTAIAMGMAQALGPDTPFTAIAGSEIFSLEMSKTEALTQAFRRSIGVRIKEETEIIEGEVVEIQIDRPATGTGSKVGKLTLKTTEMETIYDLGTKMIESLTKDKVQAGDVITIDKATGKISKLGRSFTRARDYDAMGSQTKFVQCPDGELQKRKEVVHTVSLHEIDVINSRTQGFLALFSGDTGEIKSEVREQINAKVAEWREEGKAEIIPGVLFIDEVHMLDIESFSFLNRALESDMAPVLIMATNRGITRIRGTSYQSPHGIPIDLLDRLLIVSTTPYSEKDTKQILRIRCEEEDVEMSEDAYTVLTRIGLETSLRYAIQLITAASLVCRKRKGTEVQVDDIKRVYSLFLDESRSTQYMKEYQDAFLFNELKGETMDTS

B1: GST-ZNHIT2 (full-length) (natural protein, human, UniProt Q9UHR6 1-403, looked up)
chain: MEPAGPCGFCPAGEVQPARYTCPRCNAPYCSLRCYRTHGTCAENFYRDQVLGELRGCSAPPSRLASALRRLRQQRETEDEPGEAGLSSGPAPGGLSGLWERLAPGEKAAFERLLSRGEAGRLLPPWRPWWWNRGAGPQLLEELDNAPGSDAAELELAPARTPPDSVKDASAAEPAAAERVLGDVPGACTPVVPTRIPAIVSLSRGPVSPLVRFQLPNVLFAYAHTLALYHGGDDALLSDFCATLLGVSGALGAQQVFASAEEALQAAAHVLEAGEHPPGPLGTRGAMHEVARILLGEGPTNQKGYTLAALGDLAQTLGRARKQAVAREERDHLYRARKKCQFLLAWTNENEAALTPLALDCARAHQAHAVVAEEVAALTGELERLWGGPVPPAPRTLIEELPS
notes: ZNHIT2, human ZNHIT family member; cDNA amplified from a Mammalian Gene Collection clone, cloned into pGEX-4T-1; also called GST-tagged ZNHIT2; source: E. coli One Shot BL21 Star DE3, purified (Glutathione Sepharose 4B)
- binding result: binds
